Assays:
RAS Q61WT[55-64] pHLA-A1 [1] = target: T1, RAS Q61WT[55-64] pHLA-A1 (human); test: flow cytometry, phage on peptide-pulsed SigM5 cells; anti-M13, anti-rabbit PE
T1 construct: also called Q61WT pHLA-A1; H/K/N RAS WT(55-64) peptide on HLA-A1

[2] = target: T2, CHD4 peptide (…) on HLA-A1 (human); test: co-culture of peptide-pulsed SigM5 cells with T cells and L2-U scDb; IFNγ release
T2 construct: whole, on cells; on peptide-pulsed SigM5 cells
Method: (A) Each amino acid of the G12V peptide was systematically changed to the other 19 amino acids. T2A3 cells were pulsed with 10 μM of the G12V peptide library. […] Cells were incubated for 24 hour and assayed for secreted IFNγ. […] Cells were incubated for 24 hours and assayed for secreted IFNγ. […] Cells were incubated for 24 hours and assayed for secreted IFNγ.
The library of peptides was generated by systematically substituting each amino acid of the original peptides with the other 19 amino acids. […] Recognition of the variant peptides was evaluated through IFNγ release (FIG. 44, A and B, FIG. 63, A and B). […] Next, using a 20% cognate peptide reactivity as a cutoff for permissive amino acids at each position, decamer binding motifs were generated for each candidate target peptide (Materials and Methods).

RAS Q61WT[55-64] pHLA-A1 [3] = target: T1, RAS Q61WT[55-64] pHLA-A1; test: ELISA, scDb at 10 nM on titrated biotinylated pHLA-A1 on streptavidin plate; protein L, anti-protein L HRP
p53^WT/HLA-A*02:01 pHLA [4] = target: p53^WT/HLA-A*02:01 pHLA (human); test: ELISA, scDb on biotinylated pHLA on streptavidin plate; protein L, anti-protein L HRP
Method: Streptavidin-coated, 96-well plates (R&D Systems, Minneapolis, Minn., CP004) were coated with 50 ng of biotinylated HLA-A*02:01 pHLA monomers in 50 μL of blocking buffer (PBS with 0.5% BSA, 2 mM EDTA, and 0.1% sodium azide) or 25 ng of recombinant human CD3/6 (Acro Biosystems, DE, CDD-H52W4) at 4° C. overnight. […] Serial dilutions of scDb or IgG was incubated on the plate for 1 hour at RT and washed.

RAS Q61WT[55-64] pHLA-A1 [5] = target: T1, RAS Q61WT[55-64] pHLA-A1; test: flow cytometry: scFv phage supernatant on peptide-pulsed SigM5 cells (HLA-A1+), median fluorescence intensity
RAS Q61WT[55-64] pHLA-A1 [6] = target: T1, RAS Q61WT[55-64] pHLA-A1; test: flow cytometry, phage on peptide-pulsed SigM5 cells; anti-M13, anti-rabbit PE; remark: listed apart in the source
p53^WT/HLA-A*02:01 pHLA [7] = target: p53^WT/HLA-A*02:01 pHLA (human); test: flow cytometry: scFv phage supernatant on peptide-pulsed T2 cells (HLA-A2+), median fluorescence intensity
Method: Cells were stained with 50 μL of phage supernatant per 50 μL of cells, washed and stained with rabbit anti-M13 antibody, then washed and stained with anti-Rabbit-PE antibody. Cells were stained with a live/dead Near-infrared (IR) dye, washed, and analyzed by an iQue Screener (IntelliCyt, Albuquerque, N. Mex.).
The pulsed cells were pelleted, washed once in cold staining buffer (PBS containing 0.5% BSA, 2 mM EDTA, and 0.1% sodium azide), and resuspended in 50 μL of stain buffer. Phage staining was performed on ice with 50 μL monoclonal phage supernatant for 1 hour, followed by one 800 μL wash in cold staining buffer. Cells were then stained with 1 μg of rabbit anti-M13 antibody (Novus Biologics, Centennial, Colo.) in 100 μL total volume on ice for 1 hour and washed once with 800 μL of cold staining buffer. Cells were then stained with 5 μL anti-rabbit-PE (Biolegend) on ice for 1 hour in 100 μL total volume, followed by incubation with 200 μL LIVE/DEAD Fixable Near-IR Dead Cell Stain (Thermo Fisher) for 10 minutes at room temperature per manufacturer's instructions. Cells were washed once in 800 μL of staining buffer. Stained cells were analyzed using an iQue Screener (IntelliCyt, Albuquerque, N. Mex.).

RAS Q61WT[55-64] pHLA-A1 [8] = target: T1, RAS Q61WT[55-64] pHLA-A1; test: ELISA, scDb at 10 nM on titrated biotinylated pHLA-A1 on streptavidin plate; protein L, anti-protein L HRP; remark: listed apart in the source
RAS Q61WT[55-64] pHLA-A1 [9] = target: T1, RAS Q61WT[55-64] pHLA-A1; test: flow cytometry, phage on peptide-pulsed SigM5 cells; anti-M13, anti-rabbit PE; remark: listed apart in the source
RAS Q61WT[55-64] pHLA-A1 [10] = target: T1, RAS Q61WT[55-64] pHLA-A1; test: ELISA, scDb at 10 nM on titrated biotinylated pHLA-A1 on streptavidin plate; protein L, anti-protein L HRP; remark: listed apart in the source

B1: H/K/N RAS Q61H_A1_cl1 (H1) (scFv)
scFv: DIQMTQSPSSLSASVGDRVTITCRASQDVNTAVAWYQQKPGKAPKLLIYSASFLYSGVPSRFSGSRSGTDFTLTISSLQPEDFATYYCQQVIYYPFTFGQGTKVEIKRTGGGSGGGGSGGGASEVQLVESGGGLVQPGGSLRLSCAASGFNLYSYAIHWVRQAPGKGLEWVALLYPDYGVTSYADSVKGRFTISADTSKNTAYLQMNSLRAEDTAVYYCSRYRSYEYSVSSYSYSAMDYWGQGTLVTVSS
notes: also called Q61H clone H1; H1 scFv
binding result (RAS Q61WT[55-64] pHLA-A1 [1]): no binding (tested: single dose (50 µL phage supernatant))

B2: L2-U scDb (bispecific antibody)
chain: DIQMTQSPSSLSASVGDRVTITCRASQDVNTAVAWYQQKPGKAPKLLIYSASFLYSGVPSRFSGSRSGTDFTLTISSLQPEDFATYYCQQAVSYPWTFGQGTKVEIKGGGGSEVQLQQSGPELVKPGASMKISCKASGYSFTGYTMNWVKQSHGKNLEWMGLINPYKGVSTYNQKFKDKATLTVDKSSSTAYMELLSLTSEDSAVYYCARSGYYGDSDWYFDVWGAGTTVTVSSGGGGSGGGGSGGGGSDIQMTQTTSSLSASLGDRVTISCRASQDIRNYLNWYQQKPDGTVKLLIYYTSRLHSGVPSKFSGSGSGTDYSLTISNLEQEDIATYFCQQGNTLPWTFAGGTKLEIKGGGGSEVQLVESGGGLVQPGGSLRLSCAASGFNISSSGIHWVRQAPGKGLEWVAMVYGGSGYTNYADSVKGRFTISADTSKNTAYLQMNSLRAEDTAVYYCSRWAHYSAYMDYWGQGTLVTVSSHHHHHH
notes: also called L2 single chain diabody; H/K/N RAS Q61L(55-64)-A1 cl.2 UCHT1 scDb
binding result [2]: no binding (tested: 1 nM scDb) | binding result (RAS Q61WT[55-64] pHLA-A1 [3]): no binding (tested: 10 ug/mL coated pHLA-A1, scDb at 10 nM)

B3: H20-UCHT1-scDb (bispecific antibody)
chain: DIQMTQSPSSLSASVGDRVTITCRASQDVNTAVAWYQQKPGKAPKLLIYSASFLYSGVPSRFSGSRSGTDFTLTISSLQPEDFATYYCQQSNAYPITFGQGTKVEIKGGGGSEVQLQQSGPELVKPGASMKISCKASGYSFTGYTMNWVKQSHGKNLEWMGLINPYKGVSTYNQKFKDKATLTVDKSSSTAYMELLSLTSEDSAVYYCARSGYYGDSDWYFDVWGAGTTVTVSSGGGGSGGGGSGGGGSDIQMTQTTSSLSASLGDRVTISCRASQDIRNYLNWYQQKPDGTVKLLIYYTSRLHSGVPSKFSGSGSGTDYSLTISNLEQEDIATYFCQQGNTLPWTFAGGTKLEIKGGGGSEVQLVESGGGLVQPGGSLRLSCAASGFNLNSYYMHWVRQAPGKGLEWVAMIIPGYGYTNYADSVKGRFTISADTSKNTAYLQMNSLRAEDTAVYYCSRSYYMYMDYWGQGTLVTVSSHHHHHH
notes: single-chain diabody of H20 with the anti-CD3 scFv UCHT1; also called H20-scDb
binding result (p53^WT/HLA-A*02:01 pHLA [4]): binds

B4: H/K/N RAS Q61H_A1_cl4 (scFv)
scFv: DIQMTQSPSSLSASVGDRVTITCRASQDVNTAVAWYQQKPGKAPKLLIYSASFLYSGVPSRFSGSRSGTDFTLTISSLQPEDFATYYCQQYDYYPFTFGQGTKVEIKRTGGGSGGGGSGGGASEVQLVESGGGLVQPGGSLRLSCAASGFNVFGYAIHWVRQAPGKGLEWVAEVYPGYDVTSYADSVKGRFTISADTSKNTAYLQMNSLRAEDTAVYYCSRYSWAGAFDYWGQGTLVTVSS
binding result (RAS Q61WT[55-64] pHLA-A1 [5]): no binding

B5: H/R/N RAS Q61R_A1_cl6 (R6) (scFv)
scFv: DIQMTQSPSSLSASVGDRVTITCRASQDVNTAVAWYQQKPGKAPKLLIYSASFLYSGVPSRFSGSRSGTDFTLTISSLQPEDFATYYCQQYSNYPLTFGQGTKVEIKRTGGGSGGGGSGGGASEVQLVESGGGLVQPGGSLRLSCAASGFNVFYGSMHWVRQAPGKGLEWVAFIGPDSTYTYYADSVKGRFTISADTSKNTAYLQMNSLRAEDTAVYYCSRDLGSAYAMDYWGQGTLVTVSS
notes: also called Q61R clone R6; R6 scFv
binding result (RAS Q61WT[55-64] pHLA-A1 [6]): no binding (tested: single dose (50 µL phage supernatant))

B6: H/K/N RAS Q61H_A1_cl2 (scFv)
scFv: DIQMTQSPSSLSASVGDRVTITCRASQDVNTAVAWYQQKPGKAPKLLIYSASFLYSGVPSRFSGSRSGTDFTLTISSLQPEDFATYYCQQYDYYPFTFGQGTKVEIKRTGGGSGGGGSGGGASEVQLVESGGGLVQPGGSLRLSCAASGFNISYEAMHWVRQAPGKGLEWVALIYPNHGITSYADSVKGRFTISADTSKNTAYLQMNSLRAEDTAVYYCSRYSSSAMDYWGQGTLVTVSS
binding result (RAS Q61WT[55-64] pHLA-A1 [5]): no binding

B7: p53_R175H_A2_cl15 (scFv)
scFv: DIQMTQSPSSLSASVGDRVTITCRASQDVNTAVAWYQQKPGKAPKLLIYSASFLYSGVPSRFSGSRSGTDFTLTISSLQPEDFATYYCQQSSYYPNTFGQGTKVEIKRTGGGSGGGGSGGGASEVQLVESGGGLVQPGGSLRLSCAASGFNLYQRDMHWVRQAPGKGLEWVAGLLYGSDHTEYADSVKGRFTISADTSKNTAYLQMNSLRAEDTAVYYCSRATYEEAFDYWGQGTLVTVSS
binding result (p53^WT/HLA-A*02:01 pHLA [7]): no binding

B8: p53_R175H_A2_cl6 (scFv)
scFv: DIQMTQSPSSLSASVGDRVTITCRASQDVNTAVAWYQQKPGKAPKLLIYSASFLYSGVPSRFSGSRSGTDFTLTISSLQPEDFATYYCQQQSSTPVTFGQGTKVEIKRTGGGSGGGGSGGGASEVQLVESGGGLVQPGGSLRLSCAASGFNVYQSDMHWVRQAPGKGLEWVATIWPYSGYTYYADSVKGRFTISADTSKNTAYLQMNSLRAEDTAVYYCSRDGMYAFDYWGQGTLVTVSS
binding result (p53^WT/HLA-A*02:01 pHLA [7]): no binding

B9: H1-U scDb (bispecific antibody)
chain: DIQMTQSPSSLSASVGDRVTITCRASQDVNTAVAWYQQKPGKAPKLLIYSASFLYSGVPSRFSGSRSGTDFTLTISSLQPEDFATYYCQQVIYYPFTFGQGTKVEIKGGGGSEVQLQQSGPELVKPGASMKISCKASGYSFTGYTMNWVKQSHGKNLEWMGLINPYKGVSTYNQKFKDKATLTVDKSSSTAYMELLSLTSEDSAVYYCARSGYYGDSDWYFDVWGAGTTVTVSSGGGGSGGGGSGGGGSDIQMTQTTSSLSASLGDRVTISCRASQDIRNYLNWYQQKPDGTVKLLIYYTSRLHSGVPSKFSGSGSGTDYSLTISNLEQEDIATYFCQQGNTLPWTFAGGTKLEIKGGGGSEVQLVESGGGLVQPGGSLRLSCAASGFNLYSYAIHWVRQAPGKGLEWVALLYPDYGVTSYADSVKGRFTISADTSKNTAYLQMNSLRAEDTAVYYCSRYRSYEYSVSSYSYSAMDYWGQGTLVTVSSHHHHHH
binding result (RAS Q61WT[55-64] pHLA-A1 [8]): no binding (tested: 10 ug/mL coated pHLA-A1, scDb at 10 nM)

B10: H/K/N RAS Q61H_A1_cl10 (scFv)
scFv: DIQMTQSPSSLSASVGDRVTITCRASQDVNTAVAWYQQKPGKAPKLLIYSASFLYSGVPSRFSGSRSGTDFTLTISSLQPEDFATYYCQQTYYTPVTFGQGTKVEIKRTGGGSGGGGSGGGASEVQLVESGGGLVQPGGSLRLSCAASGFNISHYVMHWVRQAPGKGLEWVADFYPHSDSTYYADSVKGRFTISADTSKNTAYLQMNSLRAEDTAVYYCSRYQSYSFDYWGQGTLVTVSS
binding result (RAS Q61WT[55-64] pHLA-A1 [5]): no binding

B11: H/K/N RAS Q61L_A1_cl2 (L2) (scFv)
scFv: DIQMTQSPSSLSASVGDRVTITCRASQDVNTAVAWYQQKPGKAPKLLIYSASFLYSGVPSRFSGSRSGTDFTLTISSLQPEDFATYYCQQAVSYPWTFGQGTKVEIKRTGGGSGGGGSGGGASEVQLVESGGGLVQPGGSLRLSCAASGFNISSSGIHWVRQAPGKGLEWVAMVYGGSGYTNYADSVKGRFTISADTSKNTAYLQMNSLRAEDTAVYYCSRWAHYSAYMDYWGQGTLVTVSS
notes: also called Q61L clone L2; L2 scFv
binding result (RAS Q61WT[55-64] pHLA-A1 [9]): no binding (tested: single dose (50 µL phage supernatant))

B12: p53_R175H_A2_cl16 (scFv)
scFv: DIQMTQSPSSLSASVGDRVTITCRASQDVNTAVAWYQQKPGKAPKLLIYSASFLYSGVPSRFSGSRSGTDFTLTITSLQPEDFATYYCQQQWSSPDTFGQGTKVEIKRTGGGSGGGGSGGGASEVQLVESGGGLVQPGGSLRLSCAASGFNLSYYDMHWVRQAPGKGLEWVALIYYGSGYTYYADSVKGRFTISADTSKNTAYLQMNSLRAEDTAVYYCSRGSYVSGMDYWGQGTLVTVSS
binding result (p53^WT/HLA-A*02:01 pHLA [7]): no binding

B13: R6-U scDb (bispecific antibody)
chain: DIQMTQSPSSLSASVGDRVTITCRASQDVNTAVAWYQQKPGKAPKLLIYSASFLYSGVPSRFSGSRSGTDFTLTISSLQPEDFATYYCQQYSNYPLTFGQGTKVEIKGGGGSEVQLQQSGPELVKPGASMKISCKASGYSFTGYTMNWVKQSHGKNLEWMGLINPYKGVSTYNQKFKDKATLTVDKSSSTAYMELLSLTSEDSAVYYCARSGYYGDSDWYFDVWGAGTTVTVSSGGGGSGGGGSGGGGSDIQMTQTTSSLSASLGDRVTISCRASQDIRNYLNWYQQKPDGTVKLLIYYTSRLHSGVPSKFSGSGSGTDYSLTISNLEQEDIATYFCQQGNTLPWTFAGGTKLEIKGGGGSEVQLVESGGGLVQPGGSLRLSCAASGFNVFYGSMHWVRQAPGKGLEWVAFIGPDSTYTYYADSVKGRFTISADTSKNTAYLQMNSLRAEDTAVYYCSRDLGSAYAMDYWGQGTLVTVSSHHHHHH
binding result (RAS Q61WT[55-64] pHLA-A1 [10]): no binding (tested: 10 ug/mL coated pHLA-A1, scDb at 10 nM)

B14: H/K/N RAS Q61H_A1_cl3 (scFv)
scFv: DIQMTQSPSSLSASVGDRVTITCRASQDVNTAVAWYQQKPGKAPKLLIYSASFLYSGVPSRFSGSRSGTDFTLTISSLQPEDFATYYCQQSIYYPFTFGQGTKVEIKRTGGGSGGGGSGGGASEVQLVESGGGLVQPGGSLRLSCAASGFNLYTSQMHWVRQAPGKGLEWVALVYPGYYVTSYADSVKGRFTISADTSKNTAYLQMNSLRAEDTAVYYCSRGAYYYSSAMDYWGQGTLVTVSS
binding result (RAS Q61WT[55-64] pHLA-A1 [5]): no binding

Source: US20230051847A1 (Johns Hopkins, published 2023)
